Laboratory results as given in publication PMC10681739, “High-throughput data and modeling reveal insights into the mechanisms of cooperative DNA-binding by transcription factor proteins”.

T1: ETS1 (Homo sapiens, UniProt P14921)
T1 sequence: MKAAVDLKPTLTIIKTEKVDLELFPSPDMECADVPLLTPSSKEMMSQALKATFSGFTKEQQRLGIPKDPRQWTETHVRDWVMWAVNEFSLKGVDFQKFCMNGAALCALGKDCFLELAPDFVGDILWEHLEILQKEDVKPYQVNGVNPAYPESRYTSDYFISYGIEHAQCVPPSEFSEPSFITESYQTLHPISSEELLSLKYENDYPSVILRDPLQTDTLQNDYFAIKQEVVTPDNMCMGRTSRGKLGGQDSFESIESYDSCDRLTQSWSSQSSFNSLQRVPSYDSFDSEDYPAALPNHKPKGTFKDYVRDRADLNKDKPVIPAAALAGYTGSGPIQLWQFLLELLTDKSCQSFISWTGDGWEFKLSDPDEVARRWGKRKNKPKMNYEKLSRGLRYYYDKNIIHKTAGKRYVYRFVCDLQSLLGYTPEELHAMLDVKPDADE


Biological target: T1, ETS1
Test: gcPBM; 1 nM ETS1
Conditions: tags: N-terminal GST (pDEST15), kept (PMC6008103); label: surface-attached array probe

Binder	binding signal
Table S2 C row 158 (dsDNA) DNA 1: AGGTATTAAACAGCAACCGCATTGCCAAGCACTGTG DNA 2: CACAGTGCTTGGCAATGCGGTTGCTGTTTAATACCT	391 PBM fluorescence, median of replicate spots
Table S2 C row 100 (dsDNA) DNA 1: AGATGAATCACAGAGACCACACATGGAGACCCATCT DNA 2: AGATGGGTCTCCATGTGTGGTCTCTGTGATTCATCT	403 PBM fluorescence, median of replicate spots
Table S2 C row 129 (dsDNA) DNA 1: GCAGCTGTAGAGGCCTGAGGTTTACCTAATCTGCTA DNA 2: TAGCAGATTAGGTAAACCTCAGGCCTCTACAGCTGC	377 PBM fluorescence, median of replicate spots
Table S2 B row 665 (dsDNA) DNA 1: CTCCGTGCCACTACAGCCACTTCCTGCCTTGAAAAC DNA 2: GTTTTCAAGGCAGGAAGTGGCTGTAGTGGCACGGAG	13300 PBM fluorescence, median of replicate spots
Table S2 C row 14 (dsDNA) DNA 1: CTTGCCTAAGACATGCCCACAGCTGCACAGATAAGA DNA 2: TCTTATCTGTGCAGCTGTGGGCATGTCTTAGGCAAG	383 PBM fluorescence, median of replicate spots
Table S2 C row 2 (dsDNA) DNA 1: GTGATGCCGACAGGCCGTGGTTTCTGAGAAACACCA DNA 2: TGGTGTTTCTCAGAAACCACGGCCTGTCGGCATCAC	392 PBM fluorescence, median of replicate spots
Table S2 C row 69 (dsDNA) DNA 1: CTGGCAAAGCAGAAGTGTGGTTTCAGAGTCTCCCTC DNA 2: GAGGGAGACTCTGAAACCACACTTCTGCTTTGCCAG	405 PBM fluorescence, median of replicate spots
Table S2 C row 58 (dsDNA) DNA 1: CATCTGCAGACACTGTGTGGTTTCCAGGTTCCCGAG DNA 2: CTCGGGAACCTGGAAACCACACAGTGTCTGCAGATG	406 PBM fluorescence, median of replicate spots
Table S2 C row 149 (dsDNA) DNA 1: TTGGCTTCGGTTCTAACCTCAGAGACTTCTCTAAAT DNA 2: ATTTAGAGAAGTCTCTGAGGTTAGAACCGAAGCCAA	389 PBM fluorescence, median of replicate spots
Table S2 C row 93 (dsDNA) DNA 1: ATGCTGTCAAAAACTACCACAGACTGATTGGCTTAA DNA 2: TTAAGCCAATCAGTCTGTGGTAGTTTTTGACAGCAT	399 PBM fluorescence, median of replicate spots
Table S2 C row 6 (dsDNA) DNA 1: TAAGCCCCGCGTGCCTGTGGGTATTTGAAAGCTGAA DNA 2: TTCAGCTTTCAAATACCCACAGGCACGCGGGGCTTA	385 PBM fluorescence, median of replicate spots
Table S2 C row 75 (dsDNA) DNA 1: AGCTCTGAGAATCATTGTGGCCACACTGTCATGGTC DNA 2: GACCATGACAGTGTGGCCACAATGATTCTCAGAGCT	376 PBM fluorescence, median of replicate spots
Table S2 B row 1078 (dsDNA) DNA 1: TGCAGCTTCCTGTCTGAGGCTTTTTGGTCCTTTCAT DNA 2: ATGAAAGGACCAAAAAGCCTCAGACAGGAAGCTGCA	12900 PBM fluorescence, median of replicate spots
Table S2 C row 136 (dsDNA) DNA 1: CAAATGAGGTGCCAAGCCACAAAAAGCATTTGCGTC DNA 2: GACGCAAATGCTTTTTGTGGCTTGGCACCTCATTTG	388 PBM fluorescence, median of replicate spots
Table S2 C row 33 (dsDNA) DNA 1: ATCTCAGTTAAGCAGACCACACTTTACGTTCTAGTT DNA 2: AACTAGAACGTAAAGTGTGGTCTGCTTAACTGAGAT	393 PBM fluorescence, median of replicate spots
Table S2 C row 47 (dsDNA) DNA 1: CCTACAAATTCCAGCTGTGGTCAGCTGGTGAGCTCT DNA 2: AGAGCTCACCAGCTGACCACAGCTGGAATTTGTAGG	408 PBM fluorescence, median of replicate spots
Table S2 C row 55 (dsDNA) DNA 1: CTGACATTTAAGCTCACCACATGTGGGATAGTTAGT DNA 2: ACTAACTATCCCACATGTGGTGAGCTTAAATGTCAG	379 PBM fluorescence, median of replicate spots
Table S2 C row 72 (dsDNA) DNA 1: ACTACCTTCTTGGTAACCACAAGTCTCAGAGGTACT DNA 2: AGTACCTCTGAGACTTGTGGTTACCAAGAAGGTAGT	394 PBM fluorescence, median of replicate spots
Table S2 C row 128 (dsDNA) DNA 1: AAGATATGGGCTACTTGTGGTTTACTCTGTCTGCTA DNA 2: TAGCAGACAGAGTAAACCACAAGTAGCCCATATCTT	392 PBM fluorescence, median of replicate spots
Table S2 C row 181 (dsDNA) DNA 1: CACAGGCAGTTCCAGACCGCAGCCTTCCAGGGCCCT DNA 2: AGGGCCCTGGAAGGCTGCGGTCTGGAACTGCCTGTG	391 PBM fluorescence, median of replicate spots
Table S2 C row 191 (dsDNA) DNA 1: CCAAAAAGAGAGGCAGCCACAAGATCTTCTAAAAGG DNA 2: CCTTTTAGAAGATCTTGTGGCTGCCTCTCTTTTTGG	380 PBM fluorescence, median of replicate spots

Binder	binding signal
Table S2 C row 125 (dsDNA) DNA 1: CATTTCAGTAGACTCACCACAAGGTTGTGGCCAGAA DNA 2: TTCTGGCCACAACCTTGTGGTGAGTCTACTGAAATG	399 PBM fluorescence, median of replicate spots
Table S2 C row 85 (dsDNA) DNA 1: TGTAATCTTTCTTAATGTGGTTAAATTCAAGTTATT DNA 2: AATAACTTGAATTTAACCACATTAAGAAAGATTACA	407 PBM fluorescence, median of replicate spots
Table S2 C row 156 (dsDNA) DNA 1: AGGTGTGCTCTCCACCGCGGTTCACAAGGTGTCTGC DNA 2: GCAGACACCTTGTGAACCGCGGTGGAGAGCACACCT	376 PBM fluorescence, median of replicate spots
Table S2 C row 87 (dsDNA) DNA 1: GAATGTCTTTAAAAAACCACAGAATTGGGCTGGGCG DNA 2: CGCCCAGCCCAATTCTGTGGTTTTTTAAAGACATTC	379 PBM fluorescence, median of replicate spots
Table S2 C row 115 (dsDNA) DNA 1: TGGGGCTTCTCGTTGGCCACAAGTTCAATTTGAGCC DNA 2: GGCTCAAATTGAACTTGTGGCCAACGAGAAGCCCCA	381 PBM fluorescence, median of replicate spots
Table S2 C row 48 (dsDNA) DNA 1: TTCAGAGTCAGATCTACCACACACAGCCCAGGAGCC DNA 2: GGCTCCTGGGCTGTGTGTGGTAGATCTGACTCTGAA	393 PBM fluorescence, median of replicate spots
Table S2 C row 57 (dsDNA) DNA 1: CACAGAACTGACCAGACCACATGGAGGCCAATCAAA DNA 2: TTTGATTGGCCTCCATGTGGTCTGGTCAGTTCTGTG	379 PBM fluorescence, median of replicate spots
Table S2 B row 672 (dsDNA) DNA 1: GGCTTCCGGCGGGGTACCCTCCTCTGTAGGCGGGGC DNA 2: GCCCCGCCTACAGAGGAGGGTACCCCGCCGGAAGCC	13700 PBM fluorescence, median of replicate spots
Table S2 B row 2766 (dsDNA) DNA 1: TTTGCAAATCCAGAGCGGAGACTTCCGGTGGCCTAG DNA 2: CTAGGCCACCGGAAGTCTCCGCTCTGGATTTGCAAA	14400 PBM fluorescence, median of replicate spots
Table S2 C row 43 (dsDNA) DNA 1: GGCTTTCCAAGCTAGTGTGGTCCACTTGCTCCCTCA DNA 2: TGAGGGAGCAAGTGGACCACACTAGCTTGGAAAGCC	378 PBM fluorescence, median of replicate spots
Table S2 C row 20 (dsDNA) DNA 1: TCTCCTCTGAGGGCCTGTGGGCAATGAGCAGAAAAG DNA 2: CTTTTCTGCTCATTGCCCACAGGCCCTCAGAGGAGA	389 PBM fluorescence, median of replicate spots
Table S2 C row 124 (dsDNA) DNA 1: CGCAGCTCCCCACTGTGCGGTTATCTAGGCCAGCAC DNA 2: GTGCTGGCCTAGATAACCGCACAGTGGGGAGCTGCG	376 PBM fluorescence, median of replicate spots
Table S2 C row 88 (dsDNA) DNA 1: TGAGGCTCAGTGCTGACCACATTCAAATGACTAGAC DNA 2: GTCTAGTCATTTGAATGTGGTCAGCACTGAGCCTCA	389 PBM fluorescence, median of replicate spots
Table S2 C row 23 (dsDNA) DNA 1: GCTTTGCACAGCTTTGCCACAAAGCCCAGTCTGTGT DNA 2: ACACAGACTGGGCTTTGTGGCAAAGCTGTGCAAAGC	399 PBM fluorescence, median of replicate spots
Table S2 C row 133 (dsDNA) DNA 1: TTGTAGGGATGACTGACCACAAAAGACAGTGACTCA DNA 2: TGAGTCACTGTCTTTTGTGGTCAGTCATCCCTACAA	398 PBM fluorescence, median of replicate spots
Table S2 C row 123 (dsDNA) DNA 1: ATGCAGAAGGAATGCTGTGGTAGACAGCATTCCTTT DNA 2: AAAGGAATGCTGTCTACCACAGCATTCCTTCTGCAT	407 PBM fluorescence, median of replicate spots
Table S2 C row 134 (dsDNA) DNA 1: AAGTCTACAGCTCTTTGAGGTTCATGTGTGACTCTA DNA 2: TAGAGTCACACATGAACCTCAAAGAGCTGTAGACTT	394 PBM fluorescence, median of replicate spots
Table S2 C row 46 (dsDNA) DNA 1: GGTTTACAGCTCATTTGCGGCAGAATCAAAATGGCT DNA 2: AGCCATTTTGATTCTGCCGCAAATGAGCTGTAAACC	392 PBM fluorescence, median of replicate spots
Table S2 C row 192 (dsDNA) DNA 1: CAAGGTGGCAGTGATTGTGGCCGGCCACCTATCTGA DNA 2: TCAGATAGGTGGCCGGCCACAATCACTGCCACCTTG	408 PBM fluorescence, median of replicate spots
Table S2 C row 32 (dsDNA) DNA 1: TAGTTGTATGTGGAAACCACAAAACTGAGTCATAAA DNA 2: TTTATGACTCAGTTTTGTGGTTTCCACATACAACTA	395 PBM fluorescence, median of replicate spots
Table S2 C row 74 (dsDNA) DNA 1: GTTAAAACAAAGCAAGCCACAGTGTGTGTCCACAGA DNA 2: TCTGTGGACACACACTGTGGCTTGCTTTGTTTTAAC	382 PBM fluorescence, median of replicate spots
